Measured values from paper PMC8568920, “Serum apolipoprotein A-I potentiates the therapeutic efficacy of lysocin E against Staphylococcus aureus” (Nature Communications, 2021).

Legend:
[1] = target: biotinylated lysocin E derivative, Bu-type; assay: BLI; BLItz system, room temperature; biotinylated ligand (0.1 mg/ml) immobilised on a streptavidin biosensor; PBS with 0.05% Tween-20; 300 s association and 300 s dissociation
[2] = target: biotinylated lysocin E derivative, natural type; assay: as above

recombinant human apolipoprotein A-I, wild type (from UniProt P02647 19-267) (natural protein)
Kd [1]: 3.4 µM
Kd [2]: 3.6 µM
